± gives the uncertainty stated by the source.
Assay: amyloid nucleation score (Sup35N fusion, yeast selection) (log enrichment); library NNK3; higher = more nucleation; inactive = no reads after selection
Procedure, shortened: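 Yeast lacking psi expressed peptides of 20 random codons fused to Sup35N, received 100 μM copper sulfate for 24 hours, and were then grown for 7 days at 30°C on medium lacking adenine and uracil. Illumina sequencing of input and output plasmid inserts provided the reads. Nucleation scores are DiMSum log enrichments of output over input, centred on the mode of non-aggregating sequences. Any sequence with under 100 input reads was excluded.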

Substance	amyloid nucleation score
KLTHY	inactive
KLTNLI	inactive
KLTVMVMQLASLRLAK	-0.158 ± 0.35
KLVYFRVFKSRFRSRVGGMV	inactive
KLYWNHAQYPNTTVSTVKFS	-0.706 ± 1.4
KMCDECIVLS	inactive
KMDQYCWGFFVSWYMRKKVF	inactive
KMSSHFV	inactive
KNEAPRTGQTRPRSTGMYRI	inactive
KNEVIYHWLRRRVNSRRTFR	inactive
KNKPEKRR	inactive
KNREVANYNDMYSDPILG	inactive
KNTGMGDTVSFRLVSAFEHI	inactive
KNYNNYMVSSNNLLVDIWLV	1.47 ± 0.12
KPKELSAHLNATM	inactive
KPQVPSN	inactive
KQKWIPYSLCFFTPVR	inactive
KQLLGGPTVSFNVVYSVALK	1.98 ± 0.088
KRANSE	1.11 ± 0.1
KRCIYKSNGI	inactive
KRFTLFSMIYGRV	inactive
KRGNQGGAMEDFLCNADIRV	inactive
KRLAKWGTMYLV	inactive

Substance	amyloid nucleation score
KRLSCNFRSRSKSSGWPTLV	inactive
KRYSIMFSKASQ	0.986 ± 0.15
KRYYYCHGSSL	inactive
KSFELYSKNVMYDSVLGVCL	inactive
KSFQGSITILVFSWLINNPR	inactive
KSFSR	inactive
KSKNPIIVFTYRM	1.2 ± 0.14
KSNFGLVSSPMVFSYCSYTN	0.364 ± 0.35
KSTTACASRTYMCMHTGRNC	inactive
KSVQKMAWTVRCELYLHTG	inactive
KSYLFWSLI	inactive
KTKQIYDGPLGHSYADKCNV	inactive
KTLWHEVRGDDSNVSSCWFS	inactive
KTQDKITGFLTVLWLRKLVP	inactive
KTSINGKADFG	inactive
KVCNSF	inactive
KVCSVVLLGLFSYMYRGYVM	inactive
KVGFHHDTVLAGSNQRVLFF	-0.354 ± 0.88
KVGIF	inactive
KVKRFY	1.17 ± 0.19
KVLSYRETVPRLICLIHSRP	inactive
KVNAFTCTKSFGLCVSESFT	inactive
KVSYSQTPISGRTDTPVPDR	0.294 ± 0.2

Substance	amyloid nucleation score
KWLYTDYRVISSHILKHLSA	inactive
KWVFYYDRRVDSLLARMFLC	inactive
KWYRWCMYADDIESHLFGAL	inactive
KYCGLSRPIAFSPVVKKHLM	inactive
KYCGVTNLA	inactive
KYFTLDMNRKSISYL	inactive
KYIQIDKVFH	inactive
KYRVGMSSWFNLAHYGNLCG	0.228 ± 0.25
KYYWFMF	1.78 ± 0.096
LAAIDERPS	inactive
LAAQIMNSLCRLELSQALSR	inactive
LACLILS	inactive
LACRFILNAEVEICLAWKLG	inactive
LADLNTTNIVIGQCCFFYRL	2.55 ± 0.076
LAFYNQHWNFSMRSGMQGFK	1.05 ± 0.23
LAGRHVVMWLQLMAHDIENM	inactive
LAMSYYLYPGSCDLKRS	inactive
LAPGRLCLMGIKRTTSWWSS	inactive
LAPHLSTIMCIEHNS	inactive
LARRNTLVEGHDD	inactive
LARWNVIWFFNGNCIFEESV	1.31 ± 0.074
LASNFVGASIPPRRACGCRA	inactive
LATHSICVKGNSRVSELISA	inactive

Substance	amyloid nucleation score
LAVVNYQSFTNVEWVGNRIK	inactive
LAWCVLSKPRDRYSGVTSTL	inactive
LCGLSDSYCRA	inactive
LCHVVSDMVLSIQHYHACLS	inactive
LCHYYLRSKLMAFDMLAFPS	inactive
LCNWRAVDCDD	-0.151 ± 0.59
LCPHPPFLCLVQQRFTTGSG	-0.123 ± 0.33
LCRGYDRLKRPHSVVSGSIC	inactive
LCRNWVR	inactive
LCSFPKH	inactive
LCSSLIM	inactive
LCSVVTSRAMSGSF	inactive
LCTESFIISR	inactive
LCVSCIDSFLGEMVFGLEVI	inactive
LDARN	-0.213 ± 1.5
LDCLLFKKCFVVRGLNDYSE	inactive
LDFCFLGHRWRSFSGSYRKS	inactive
LDFWRESVGAKE	inactive
LDFYRTFNDSIFKMGPLCLS	inactive
LDIFKISDTWMFDGQLTHLL	inactive
LDRSVIIVSLILS	1.87 ± 0.072
LDVPWRTFLNGFHSFLT	inactive
LDVQATIAFCVVVYASLYKR	inactive

Substance	amyloid nucleation score
LDVVRRMLKTH	inactive
LDVYTVTGRDW	inactive
LDYAFCILNNNCREC	3.05 ± 0.057
LEHCLCGLKYPDE	inactive
LEMTSCTNLLHKRELVSWHR	inactive
LEPDNYTLGGTKSTTTFAHR	inactive
LERYRFKRNMSVIELHNKVM	inactive
LESINTLLNYVYYFNLVN	inactive
LEVHIFKDPEY	inactive
LEWRMNVLMLFRNVMVHIAS	inactive
LEYAYSELNSSVSTLSSFE	inactive
LEYVCMRH	inactive
LFADWQG	inactive
LFCFSVN	inactive
LFDLWNRVF	inactive
LFGEGKFKYWMSVKKFGSGI	inactive
LFHDLGFAD	inactive
LFHSYLIHRLFPSNHSNFRM	inactive
LFIECIRSGDDGCILWETWH	inactive
LFKDSIVLIGILYCMFNLHD	inactive
LFKKVDTWSYLHGDTMLRGI	inactive
LFKLSMQLCNT	1.71 ± 0.076
LFLMIFNARNCVRYGIEGPS	inactive

Substance	amyloid nucleation score
LFLSDKLPTFSRLNKCMLGV	-1.31 ± 1.9
LFMKRLFLSWFSMVVICGAP	0.362 ± 0.71
LFNSRMCMPRFASASNLACL	inactive
LFQKKFILQVYNCLFSYYFN	1.18 ± 0.096
LFTWKCDLGSRRAKGSGLGS	1.42 ± 0.13
LFVLELVRIWVTYNWCSVSF	inactive
LFYAVSFQRYQANVFVVRGD	inactive
LGFLNWSRQGGV	0.947 ± 0.25
LGIAPDHMSCSGVNRKCGYS	inactive
LGKPASSTQSMWNSFVYWLP	inactive
LGKRVGCNCICAPRSAGDGI	inactive
LGRKIRFFGYSGWGCMIREY	inactive
LGSCCLLYYYAKTVMNMFSK	inactive
LGSDTPLKCVLSTMRMLRTG	inactive
LGVHWNPFIWVSSDARQNSR	-0.089 ± 0.96
LGVSLKGNYAYWFTLIWSDV	inactive
LGYTQSVTVMRLMSQYKKAG	-0.334 ± 0.55
LHGCTEITKGNYLPNNAVD	inactive
LHGHTWSWSLDWLSYMTAVQ	inactive
LHHFSAIPH	inactive
LHHMHYSLKGS	inactive
LHPCEYALM	-1.4 ± 2.5
LHQCRDKL	inactive

Substance	amyloid nucleation score
LHVLPEQARTPRVTVPVFSP	-0.339 ± 1.1
LIAFA	2.53 ± 0.069
LIARALFNSKWQDTSLSL	inactive
LIAYRVGHSGSAQYSSTCGW	1.04 ± 0.13
LICIQCWFYDSYHTQQLWGL	2.16 ± 0.056
LICNCHPRESSDPTFLCGLG	inactive
LICVYVWVHCLMNPYHAINR	0.199 ± 0.16
LIDWTDNRYPYRHHHFCPNA	inactive
LIEWYFDN	inactive
LIFRRCLCNSSCYDLIAGRG	inactive
LIGLMWFVMWFFMARMREIN	inactive
LIIVMFPAVCIVFDFNFTVF	inactive
LILSSCVKGPVSCRPM	inactive
LILVCSSGRAIMKRAPCKFR	inactive
LIMLFHSWMSTRWYGVVSNS	inactive
LINKFRWPTPNECLVPVFQD	inactive
LINVPDGSSSKLSDMV	inactive
LIRQRLDRLVQHFVDFRVFF	inactive
LIVGKNNVPMFTSNKFLVFS	-0.508 ± 0.8
LIWFGGGPSRWSM	-0.117 ± 1.1
LIWQGCV	inactive
LIYTGSAIIINRIWE	2.17 ± 0.08
LKDAHQWIYLW	-0.779 ± 0.88

— the supplement of paper PMC12042874
